T1: native CEACAM6 expressed by human tumor cells (BxPC3, LS174T, A549) (human, UniProt P40199 35-320)
T1 sequence: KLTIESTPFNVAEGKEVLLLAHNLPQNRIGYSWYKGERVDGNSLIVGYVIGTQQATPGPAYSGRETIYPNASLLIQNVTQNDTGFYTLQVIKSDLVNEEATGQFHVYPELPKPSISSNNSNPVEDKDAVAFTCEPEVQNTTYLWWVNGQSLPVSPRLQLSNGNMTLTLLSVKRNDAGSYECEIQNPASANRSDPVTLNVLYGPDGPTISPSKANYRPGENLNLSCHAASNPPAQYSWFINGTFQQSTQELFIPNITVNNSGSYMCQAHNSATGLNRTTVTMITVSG

T2: recombinant CEACAM6 N-terminal domain (expressed in E. coli) (Homo sapiens (Human), UniProt P40199 35-142, limits assumed)
T2 construct: also called CEACAM6 N-domain; recombinant CEACAM6 protein (N-domain)
T2 sequence: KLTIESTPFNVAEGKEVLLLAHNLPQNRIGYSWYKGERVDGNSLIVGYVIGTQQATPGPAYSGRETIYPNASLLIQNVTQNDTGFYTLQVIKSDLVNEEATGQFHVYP

T3: CEACAM6 peptide NRIGYSWYKGERVDG
T3 construct: Spot on a JPT peptide array (45 peptides, 15 residues long, 10 overlapping)
T3 peptide: NRIGYSWYKGERVDG

T4: CEACAM6 peptide HNLPQNRIGYSWYKG
T4 construct: Spot on a JPT peptide array (45 peptides, 15 residues long, 10 overlapping)
T4 peptide: HNLPQNRIGYSWYKG


How the values were obtained:
[1] = target: recombinant CEACAM6 N-terminal domain (expressed in E. coli) (Homo sapiens (Human)) (UniProt P40199); assay: SPR (Biacore 3000), 9A6 immobilised, CEACAM6 recombinant protein injected at 0.1-200 nM
[2] = target: T1, native CEACAM6 expressed by human tumor …; assay: cell-based or functional assay
[3] = target: T2, recombinant CEACAM6 N-terminal domain …; assay: SPR (Biacore 3000), CEACAM6 immobilised, 2A3 injected at 1-60 nM, 1:1 Langmuir fit
Experimental: Immobilizations were performed with an amine-coupling kit (GE Healthcare) and carried out at 50 μg/ml CEACAM6 in 10 mM Acetate, pH 4 (GE Healthcare) and 50 μg/ml of Ovalbumin in 10 mM Acetate, pH 4.5. 120 μL of the sdAb at concentration of 1 nM to 60 nM were injected over the surfaces at a flow rate of 40 μl/min. Analyses were carried out at room temperature in HBS-EP, 10 mM HEPES pH 7.4, 150 mM NaCl, 3 mM EDTA and 0.005% surfactant P20 (GE Healthcare). Regeneration was performed with running buffer (HBS-EP). Data were analyzed with BIAevaluation software 4.1.

[4] = target: T3, CEACAM6 peptide NRIGYSWYKGERVDG; assay: peptide array membrane, anti-llama detection
[5] = target: T4, CEACAM6 peptide HNLPQNRIGYSWYKG; assay: peptide array membrane, anti-llama detection
[6] = target: T2, recombinant CEACAM6 N-terminal domain …; assay: SPR (Biacore 3000), 2A3-Fc immobilised, CEACAM6 recombinant protein injected at 0.1-200 nM
Experimental: One hundred twenty microliters of CEACAM6 recombinant protein at concentration of 0.1 nM to 200 nM was injected over the surfaces at a flow rate of 40 μl min-1. Analyses were carried out at room temperature in HBS-EP comprising 10 mM HEPES pH 7.4, 150 mM NaCl, 3 mM EDTA and 0.005% surfactant P20 (GE Healthcare). Regeneration was performed with HBS-EP used as running buffer. The data were analyzed by using BIAevaluation software 4.1.

Row | Molecule | Kd [1] [nM] | BxPC3 cell proliferation (MTT assay), IC50 [2] [nM] | Kd [3] [nM] | koff [3] [s⁻¹] | kon [3] [M⁻¹ s⁻¹] | binding result [4] | binding result [5] | Kd [6] [nM]
1 | anti-CEACAM6 mouse monoclonal antibody 9A6 (Santa Cruz Biotechnology) | 8 | – | – | – | – | – | – | –
2 | sdAb 2A3 (engineered, with c-myc and His tags) (VHH, FITC-labelled in the staining and flow cytometry assays, Llama VHH expressed in the E. coli periplasm and purified by IMAC; monomer by size exclusion; also called 2A3 sdAb; FITC-2A3) VHH: QVKLEESGGGLVQAGGSLRLSCRTSGRTNSVYTMGWFRQAPGKEREFVAQIMWGAGTNTHYADSVKGRFTISRDSAESTVYLQMNSLKPEDTAVYYCAANRGIPIAGRQYDYWGQGTQVTVSS | – | 6500 | 4.7 | 0.0053 | 1.1e+06 | binds | binds | –
3 | 2A3-Fc (2A3 sdAb fused to mouse Fc2b fragment) (Fc fusion, FITC, Alexa Fluor 594 or 64Cu-DOTA label in some assays, Expressed in 293-6E cells and purified on Protein G; about 80 kDa, bivalent; also called 2A3-mFc; 2A3mFc; not shown: mouse Fc2b fragment (Fc of mouse IgG2b) from vector pTT5) QVKLEESGGGLVQAGGSLRLSCRTSGRTNSVYTMGWFRQAPGKEREFVAQIMWGAGTNTHYADSVKGRFTISRDSAESTVYLQMNSLKPEDTAVYYCAANRGIPIAGRQYDYWGQGTQVTVSS | – | 8000 | – | – | – | – | – | 13

Reference: patent publication US20130272958A1 (NATIONAL RESEARCH COUNCIL OF CANADA, published 2013)
